Source: article PMC5288973

Molecular target: taxol-stabilized microtubules assembled from bovine brain tubulin (bovine) (UniProt Q6B856)
Experiment: co-sedimentation; various amounts of MBP-GPT2 with a constant amount of taxol-stabilized MTs polymerized from 1 uM tubulin heterodimer; fit of q = (qmax x c)/(Kd + c), one GPT2 binding site on the tubulin dimer assumed

- stoichiometry N (mol of GPT2 per mol of tubulin dimer): 2.5
Substance: MBP-GPT2 (full-length Growing Plus-end Tracking protein 2 fused to maltose-binding protein) (from UniProt Q94B38 69-388) (natural protein)
